The values below come from patent publication US9283300B2, “Use of midkine protein and the protein-containing medical device” (GENERAL REGENERATIVES, LTD, priority 2009, dated 2016).

The test system of test [1] is cartilage of normal mouse (knee-joint articular, ear elastic, tracheal, intervertebral disc). Briefly: rhMK effect on cartilage thickness of normal mice (subcutaneous injection, histology). The settings on record: for Thickness of cartilage, Ear elastic cartilage / Thickness of cartilage, Femoral condyle / Thickness of cartilage, Intervertbral disc (T2-3): normal mouse, mean ± SD. It is filed as in vivo, C57BL/6J mice. How it is done: Method. 8-weeks-old male C57BL/6J mice were injected subcutaneously with recombinant human MK (rhMK) or control saline. The injection volume was 0.5 ml, given daily for a week. The mice were grouped (3 animals per group): Saline (NS) group, rhMK groups injected with various dosages at 10, 33, 100, 300, 900 μg/kg. Rats were injected with saline or rhMK (175 μg/kg) daily for a week. Rabbits were injected with saline or rhMK (92.5 μg/kg) daily for two week. Histological observation and evaluation. The knee joint tissues of all mice and rats were fixed in 10% (v/v) formalin for 1 day, the tissues of rabbits were fixed for 2 days. The fixed tissues were subjected to demineralization in liquid (7% AlCl3.6H2O, 5% methanoic acid, 8.5% HCl) 4 days for mouse and rats issues, and 10 days for rabbit tissues. The demineralized tissues were subjected to dehydration by gradient ethanol, and treated for transparency by xylene, and embedded in wax. Tissue sections were prepared by the paraffin slicing machine (Laica), and stained with hemotoxylin/eosin or Safranine O/fast green staining. Slides were observed under microscope and analyzed. The thickness of cartilage tissues were measured by the vernier caliper on microscope. Three tissue sections from each sample were measured and analyzed statisticaly. The distance between surface of cartilage to subchondral tide line was measured at ½ position of femoral condyle to denote the thickness of knee-joint cartilage. The thickness of cartilage at central part of ears was measured to denote the thickness of ear elastic cartilage. The distance between out surface of annulus to nucleus of the intervertebral disc was measured to denote the thickness of thoracic intervertebral disc (T2-3). The injection dose of rhMK: mice was injected subcutaneously 300 μg/kg daily for a week; rats were injected 175 μg/kg daily for a week; and New Zealand rabbits was injected 92.5 μg/kg daily for two weeks. Three animals per group were analyzed.

Test [2] relates to dedifferentiated rat chondrocytes in high-density culture. The test can be described thus: Redifferentiation of dedifferentiated chondrocytes in high-density culture (Col2a1 expression). It is filed as cell-based. How it is done: 5. High density culture of chondrocytes. The chondrocytes were harvested and suspended in DMEM containing 10% FBS. The cells were seeded at 4×10^5 cells/well into a 24-well plate, and experiment was divided into two groups: control group and experimental group (with 3 μg/m. 1 rhMK). When the cells reached confluence, they were cultured for additional 14 days. The culture medium was changed every two days. After the culture, some of the cells were collected for RNA extraction, and some were treated with trypsin and 0.2% type II collagenase at 37° C. for 30 min. The cells were cytospined onto glass slide and stored at −80° C. 6. Immunohistochemical staining. The cytospined glass slides covered with the cultured chondrocytes under various conditions were stored at −80° C. They were fixed in cold acetone for 10 min, treated sequentially in PBS for 5 min, in 3% H2O2 (in ddH2O) for 10 min at room temperature, and finally in ddH2O for 5 min. The slides were covered with 5% BSA (bovine serum albumine) for 20 min at room temperature. The excess serum was removed and the sections were covered with antibody against type II collagen (dilution 1:100) for 30 min at 37° C. […] RNA extraction and semi-quantitative PCR. […] PCR products were separated on 1.5% (w/v) agarose gels and quantified after staining with ethidium bromide in comparison with internal control gene expression of β-actin.

[3] abbreviates: Mouse, rhMK 300 μg/kg s.c. daily for a week.
The mark [4] stands for this setting: rhMK 10 μg/kg s.c. daily for one week.
Setting [5] is: rhMK 33 μg/kg s.c. daily for one week.
The mark [6] stands for this setting: rhMK 100 μg/kg s.c. daily for one week.
Setting [7] is: rhMK 300 μg/kg s.c. daily for one week.
The mark [8] stands for this setting: rhMK 900 μg/kg s.c. daily for one week.

B1: rhMK: recombinant human midkine mature protein (SEQ ID NO.1) expressed in E. coli and purified by ion-exchange chromatography (protein, listed as Homo sapiens)
chain: MKKKDKVKKGGPGSECAEWAWGPCTPSSKDCGVGFREGTCGAQTQRIRCRVPCNWKKEFGADCKYKFENWGACDGGTGTKVRQGTLKKARYNAQCQETIRVTKPCTPKTKAKAKAKKGKGKD
On to B1, for which, in test [1] (setting [3]), the Cartilage thickness, Ear is 58.5 ± 19.6 µm; the Cartilage thickness, Femoral condyle was found to be 195 ± 9.9 µm; the Cartilage thickness, Intervertbral disc (T2-3) is 201 ± 17.2 µm; the Cartilage thickness, Trachea amounted to 114 ± 18 µm. Besides, in test [1] (mice, s.c. daily for a week), the “effective dose that promoted the growth of all three categories of cartilages” value stood at 300 µg/kg/day; the “minimum effective dose, articular cartilage and ear elastic cartilage” value amounted to 10 µg/kg/day. Further, in test [1] (setting [4]), the “Thickness of cartilage, Ear elastic cartilage” value is on record as 47.6 ± 4.7 μm; the “Thickness of cartilage, Femoral condyle” value is 152 ± 2.7 μm; the “Thickness of cartilage, Intervertbral disc (T2-3)” value (shortened to “Thickness of cartilage … (T2-3)”) worked out at 193.8 ± 25.2 μm. For the same molecule, in test [1] (setting [5]), the “Thickness of cartilage, Ear elastic cartilage” value is 46.2 ± 5.6 μm; the “Thickness of cartilage, Femoral condyle” value was found to be 156.4 ± 8.1 μm; the “Thickness of cartilage … (T2-3)” value stood at 206.2 ± 29.4 μm. In test [1] (setting [6]), the “Thickness of cartilage, Ear elastic cartilage” value stood at 48.9 ± 5.5 μm; the “Thickness of cartilage, Femoral condyle” value came out at 172.4 ± 11.1 μm; the “Thickness of cartilage … (T2-3)” value was 193.8 ± 3.1 μm. Besides, in test [1] (setting [7]), the “Thickness of cartilage, Ear elastic cartilage” value was 58.5 ± 19.6 μm; the “Thickness of cartilage, Femoral condyle” value was 195.3 ± 9.9 μm; the “Thickness of cartilage … (T2-3)” value came to 200.7 ± 17.2 μm. Besides, in test [1] (setting [8]), the “Thickness of cartilage, Ear elastic cartilage” value was found to be 51.6 ± 5.6 μm; the “Thickness of cartilage, Femoral condyle” value amounted to 200.0 ± 7.0 μm; the “Thickness of cartilage … (T2-3)” value was 217.1 ± 6.0 μm. Also, in test [2] (P3 fibrochondrocytes cultured in high-density), the “effect on Col2a1 re-expression” value is listed as “no effect”. The “Col2a1 expression level in high-density cultures with rhMK” value in test [2] (P6 articular chondrocyte and P3 auricular chondrocyte) is given as “significantly inhibited”.
